From the RNAGym collection of RNA variant scans (doi:10.7554/elife.80360)

B1: HDV Ribozyme (parent)
chain: GGCCGGCAUGGUCCCAGCCUCCUCGCUGGCGCCGGCUGGGCAACAUUCCGAGGGGACCGUCCCCUCGGUAAUGGCGAAUGGGACCCA

Variants of: B1
Test: self-cleavage, relative activity (ratio to wild type); higher = more cleavage; co-transcriptional

| Variant | self-cleavage |
| --- | --- |
| GGCCGGCAUGGUCCCAGCCACCUCGCUGGCGUCGGCUGGGCAACAUUCCGAGGGGACCGUCCCCUCGGUAAUGGCGAAUGGGACCCA [U20A C32U] | 0.0811 |
| GGCCGGCAUGGUCCCAGCCCCCUCGCUGGCGCGGGCUGGGCAACAUUCCGAGGGGACCGUCCCCUCGGUAAUGGCGAAUGGGACCCA [U20C C33G] | 0 |
| GGCCGGCAUGGUCCCAGCCACCUCGCUGGCGCCGGCUGGGCAACAUUCCGAUGGGACCGUCCCCUCGGUAAUGGCGAAUGGGACCCA [U20A G52U] | 0.0462 |
| GGCCGGCAUGGUCCCAGCCACCUCGCUGGCGCCGGCUGGGCAACAUUCCGAAGGGACCGUCCCCUCGGUAAUGGCGAAUGGGACCCA [U20A G52A] | 0.0415 |
| GGCCGGCAUGGUCCCAGCCACCUCGCUGGCCCCGGCUGGGCAACAUUCCGAGGGGACCGUCCCCUCGGUAAUGGCGAAUGGGACCCA [U20A G31C] | 0.0475 |
| GGCCGGCAUGGUCCCAGCCACCUCGCUGGCGCCGGCUGGGCAACAUGCCGAGGGGACCGUCCCCUCGGUAAUGGCGAAUGGGACCCA [U20A U47G] | 0 |
| GGCCGGCAUGGUCCCAGCCACCUCGCUGGCGCCGGCUGGGCAACAUUCCGAGGGGACCGUCUCCUCGGUAAUGGCGAAUGGGACCCA [U20A C62U] | 0.0475 |
| GGCCGGCAUGGUCCCAGCCACCUCGCUGGCGCCGGCUGGGCAACAUUCCGAGGGGACCGUCCCCUCGGUAAUGGCGAACGGGACCCA [U20A U79C] | 0 |
| GGCCGGCAUGGUCCCAGCCACCUCGCUGGCGCCGGCUGGGCAACAUUCCGAGGGGACCGUCCCCUCGGUAAUGGCGAAGGGGACCCA [U20A U79G] | 0.0665 |
| GGCCGGCAUGGUCCCAGCCACCUCGCUGGCGCCGGCUGGGCAACAUUCCGAGGGGACCGUCCCCUCGGUAAUGGCGAAAGGGACCCA [U20A U79A] | 0.0573 |
| GGCCGGCAUGGUCCCAGCCACCUCGCUGGCGCCGGCUGGGCAACAUUCCCAGGGGACCGUCCCCUCGGUAAUGGCGAAUGGGACCCA [U20A G50C] | 0.131 |
| GGCCGGCAUGGUCCCAGCCACCUCGCUGGCGCCGGCUGGGCAACAUUCCAAGGGGACCGUCCCCUCGGUAAUGGCGAAUGGGACCCA [U20A G50A] | 0.0449 |
| GGCCGGCAUGGUCCCAGCCACCUCGCUGGGGCCGGCUGGGCAACAUUCCGAGGGGACCGUCCCCUCGGUAAUGGCGAAUGGGACCCA [U20A C30G] | 0.095 |
| GGCCGGCAUGGUCCCAGCCCCCUCGCUGGCGCCGGUUGGGCAACAUUCCGAGGGGACCGUCCCCUCGGUAAUGGCGAAUGGGACCCA [U20C C36U] | 0.131 |
| GGCCGGCAUGGUCCCAGCCACCUCGCUGGCGCUGGCUGGGCAACAUUCCGAGGGGACCGUCCCCUCGGUAAUGGCGAAUGGGACCCA [U20A C33U] | 0 |
| GGCCGGCAUGGUCCCAGCCACCUCGCUGGCGCCGGCUGGGCAACAUUCCGAGGGGGCCGUCCCCUCGGUAAUGGCGAAUGGGACCCA [U20A A56G] | 0.0536 |
| GGCCGGCAUGGUCCCAGCCACCUCGCUGGCGCCGGCUGGGCAACAUUCCGAGGGGCCCGUCCCCUCGGUAAUGGCGAAUGGGACCCA [U20A A56C] | 0.0519 |
| GGCCGGCAUGGUCCCAGCCACCUCGCUGGCGCCGGCUGGGCAACAUUCCGAGGGGACCGUCCCCUCGGUAAUAGCGAAUGGGACCCA [U20A G73A] | 0.0791 |
| GGCCGGCAUGGUCCCAGCCACCUCGCUGGCGCCCGCUGGGCAACAUUCCGAGGGGACCGUCCCCUCGGUAAUGGCGAAUGGGACCCA [U20A G34C] | 0.199 |
| GGCCGGCAUGGUCCCAGCCACCUCGCUGGCGCCAGCUGGGCAACAUUCCGAGGGGACCGUCCCCUCGGUAAUGGCGAAUGGGACCCA [U20A G34A] | 0.0992 |
| GGCCGGCAUGGUCCCAGCCACCUCGCUGGCGCCGGCUGGGCAACAUUCCGAGGGGACCGUCCCCUCGCUAAUGGCGAAUGGGACCCA [U20A G68C] | 0.0978 |
| GGCCGGCAUGGUCCCAGCCACCUCGCUGGCGCCGGCUGGGCAACAUUCCGAGGGGACCGUCCCCUCGGUAAUGGCGUAUGGGACCCA [U20A A77U] | 0 |

| Variant | self-cleavage |
| --- | --- |
| GGCCGGCAUGGUCCCAGCCCCCUCGCUGGCGCCGGCUGGGGAACAUUCCGAGGGGACCGUCCCCUCGGUAAUGGCGAAUGGGACCCA [U20C C41G] | 0.172 |
| GGCCGGCAUGGUCCCAGCCACCUCGCUGGCGCCGGCUGGGCAACAUUCCGAGGGGACCGUCCCCUCGGAAAUGGCGAAUGGGACCCA [U20A U69A] | 0 |
| GGCCGGCAUGGUCCCAGCCACCUCGCUGGCGCCGGCUGGGCAACAUUCCGAGGGGACCGUCCCCUCGGUAAUGGGGAAUGGGACCCA [U20A C75G] | 0.0791 |
| GGCCGGCAUGGUCCCAGCCCCCUCGCUGGCGCCGGCUGGGCAACAUUACGAGGGGACCGUCCCCUCGGUAAUGGCGAAUGGGACCCA [U20C C48A] | 0.341 |
| GGCCGGCAUGGUCCCAGCCACCUCGCUGGCGCCGGCUGGGCAACAUUGCGAGGGGACCGUCCCCUCGGUAAUGGCGAAUGGGACCCA [U20A C48G] | 0 |
| GGCCGGCAUGGUCCCAGCCCCCUCGCUGGCGCCGGCUGGGCUACAUUCCGAGGGGACCGUCCCCUCGGUAAUGGCGAAUGGGACCCA [U20C A42U] | 0.0978 |
| GGCCGGCAUGGUCCCAGCCCCCUCGCUGGAGCCGGCUGGGCAACAUUCCGAGGGGACCGUCCCCUCGGUAAUGGCGAAUGGGACCCA [U20C C30A] | 0.0923 |
| GGCCGGCAUGGUCCCAGCCCCCUCGCUGGUGCCGGCUGGGCAACAUUCCGAGGGGACCGUCCCCUCGGUAAUGGCGAAUGGGACCCA [U20C C30U] | 0.157 |
| GGCCGGCAUGGUCCCAGCCACCUCGCUGGCGCCGGCUGGGCAACAUUCCGAGGGGACCGUCCCCGCGGUAAUGGCGAAUGGGACCCA [U20A U65G] | 0.101 |
| GGCCGGCAUGGUCCCAGCCACCUCGCUGGCGCCGGCUGGGCAACAUUCCGAGGGGACCGUCCCCCCGGUAAUGGCGAAUGGGACCCA [U20A U65C] | 0.0639 |
| GGCCGGCAUGGUCCCAGCCACCUCGCUGGCGCCGGCUGGGCAACAUUCCGAGGGGACCGUCCCCUCGGUAAUGGCGAAUGGGGCCCA [U20A A83G] | 0.14 |
| GGCCGGCAUGGUCCCAGCCACCACGCUGGCGCCGGCUGGGCAACAUUCCGAGGGGACCGUCCCCUCGGUAAUGGCGAAUGGGACCCA [U20A U23A] | 0.277 |
| GGCCGGCAUGGUCCCAGCCACCUCGCUGGCGCCGGCUGGGCAACAUUCCGAGGGGACCGUCCCCUCGGUAAUGGCCAAUGGGACCCA [U20A G76C] | 0 |
| GGCCGGCAUGGUCCCAGCCACCUCGCAGGCGCCGGCUGGGCAACAUUCCGAGGGGACCGUCCCCUCGGUAAUGGCGAAUGGGACCCA [U20A U27A] | 0.0723 |
| GGCCGGCAUGGUCCCAGCCACCUCGCUGGCGCCGGCUGGGGAACAUUCCGAGGGGACCGUCCCCUCGGUAAUGGCGAAUGGGACCCA [U20A C41G] | 0.135 |
| GGCCGGCAUGGUCCCAGCCACGUCGCUGGCGCCGGCUGGGCAACAUUCCGAGGGGACCGUCCCCUCGGUAAUGGCGAAUGGGACCCA [U20A C22G] | 0 |
| GGCCGGCAUGGUCCCAGCCACUUCGCUGGCGCCGGCUGGGCAACAUUCCGAGGGGACCGUCCCCUCGGUAAUGGCGAAUGGGACCCA [U20A C22U] | 0 |
| GGCCGGCAUGGUCCCAGCCCCCUAGCUGGCGCCGGCUGGGCAACAUUCCGAGGGGACCGUCCCCUCGGUAAUGGCGAAUGGGACCCA [U20C C24A] | 0 |
| GGCCGGCAUGGUCCCAGCCACCUCGCUGGCGCCGGCUGGGCAACAUUCCGAGGGGACCGUCCCAUCGGUAAUGGCGAAUGGGACCCA [U20A C64A] | 0.113 |
| GGCCGGCAUGGUCCCAGCCACCUCGCUGGCGCCGGCUGGGCAACAUUCCGAGGGGACCGUCCCGUCGGUAAUGGCGAAUGGGACCCA [U20A C64G] | 0.0639 |
| GGCCGGCAUGGUCCCAGCCACCUCGCUGGCGCCGGGUGGGCAACAUUCCGAGGGGACCGUCCCCUCGGUAAUGGCGAAUGGGACCCA [U20A C36G] | 0.18 |
| GGCCGGCAUGGUCCCAGCCACCUCGCUGGCGCCGGUUGGGCAACAUUCCGAGGGGACCGUCCCCUCGGUAAUGGCGAAUGGGACCCA [U20A C36U] | 0 |

| Variant | self-cleavage |
| --- | --- |
| GGCCGGCAUGGUCCCAGCCACCUCGCUGGCGCCGGAUGGGCAACAUUCCGAGGGGACCGUCCCCUCGGUAAUGGCGAAUGGGACCCA [U20A C36A] | 0.135 |
| GGCCGGCAUGGUCCCAGCCACCUCGCUGGCGCCGGCUGGGCAACGUUCCGAGGGGACCGUCCCCUCGGUAAUGGCGAAUGGGACCCA [U20A A45G] | 0 |
| GGCCGGCAUGGUCCCAGCCCCCUCGCUGGCGCCGGCUGGGCAACAUUCCGAGGGGACCGUCCCCUCGGUAAUGGCGAAUGGGGCCCA [U20C A83G] | 0.149 |
| GGCCGGCAUGGUCCCAGCCACCUCGCUGGCGCCGGCUGGGCAACAUUCCGAGUGGACCGUCCCCUCGGUAAUGGCGAAUGGGACCCA [U20A G53U] | 0.0959 |
| GGCCGGCAUGGUCCCAGCCACCUCGCUGGCGCCGGCUGGGCAACAUUCCGAGGGGACCGUCCCCUCGGUAAUGGCGAAUGGGACUCA [U20A C85U] | 0.0405 |
| GGCCGGCAUGGUCCCAGCCACCUCGGUGGCGCCGGCUGGGCAACAUUCCGAGGGGACCGUCCCCUCGGUAAUGGCGAAUGGGACCCA [U20A C26G] | 0 |
| GGCCGGCAUGGUCCCAGCCACCUCGCUGGCGCCGGCUGGGCAACAUUCCGAGGGGACCGUCCCCUCGGUAAUGCCGAAUGGGACCCA [U20A G74C] | 0.0396 |
| GGCCGGCAUGGUCCCAGCCACCUCGCUGGCGCCGGCUGGACAACAUUCCGAGGGGACCGUCCCCUCGGUAAUGGCGAAUGGGACCCA [U20A G40A] | 0.0426 |
| GGCCGGCAUGGUCCCAGCCCCCUCGCUGGCGCCGGCUGGGCAACAUUCCGAGGGGACCGUCCCCUCGGUAAUGGCGAUUGGGACCCA [U20C A78U] | 0.111 |
| GGCCGGCAUGGUCCCAGCCACCUCGCUGACGCCGGCUGGGCAACAUUCCGAGGGGACCGUCCCCUCGGUAAUGGCGAAUGGGACCCA [U20A G29A] | 0.0773 |
| GGCCGGCAUGGUCCCAGCCCCCUCGCUGGCGGCGGCUGGGCAACAUUCCGAGGGGACCGUCCCCUCGGUAAUGGCGAAUGGGACCCA [U20C C32G] | 0.138 |
| GGCCGGCAUGGUCCCAGCCACCUCGCUGGCGCCGGCUGGGCAACAUUCCGAGGGGAACGUCCCCUCGGUAAUGGCGAAUGGGACCCA [U20A C57A] | 0.0978 |
| GGCCGGCAUGGUCCCAGCCCCCUCGCUGGCGCCGGCUGGGCAACAUUCCGUGGGGACCGUCCCCUCGGUAAUGGCGAAUGGGACCCA [U20C A51U] | 0.185 |
| GGCCGGCAUGGUCCCAGCCCACUCGCUGGCGCCGGCUGGGCAACAUUCCGAGGGGACCGUCCCCUCGGUAAUGGCGAAUGGGACCCA [U20C C21A] | 0.0475 |
| GGCCGGCAUGGUCCCAGCCACCUCGCUGGCGCCGGCUGGGCAACAGUCCGAGGGGACCGUCCCCUCGGUAAUGGCGAAUGGGACCCA [U20A U46G] | 0.166 |
| GGCCGGCAUGGUCCCAGCCCCCUCGCUGGCGCCGGCUGGGCAACAUUCCGAGGGGACCGUCCCCUCGGUACUGGCGAAUGGGACCCA [U20C A71C] | 0.0692 |
| GGCCGGCAUGGUCCCAGCCACCUCGCUGGCGCCGGCUGGGCAACAUUCCGAGGAGACCGUCCCCUCGGUAAUGGCGAAUGGGACCCA [U20A G54A] | 0.116 |
| GGCCGGCAUGGUCCCAGCCACCUCGCUGGCGCCGGCUGCGCAACAUUCCGAGGGGACCGUCCCCUCGGUAAUGGCGAAUGGGACCCA [U20A G39C] | 0.185 |
| GGCCGGCAUGGUCCCAGCCCCCUCGCUGGCGCCGGCUGGGCAACAUUCCGAGGGGACCGUCCCCUCGGUAAUGGCGUAUGGGACCCA [U20C A77U] | 0.0898 |
| GGCCGGCAUGGUCCCAGCCACCUCGCUGGCGCCGGCUGGGCAACAUUCCGAGGGGACCGUCCCCUCGGUAAUGGCGAAUGGGAACCA [U20A C84A] | 0.208 |
